Experimental data taken from the supplement of paper PMC11780869.

System: Bacillus subtilis
Assay: cleaved RNA product abundance (RNA/gDNA barcode ratio) relative to median wild-type variant (ratio to wild type); higher = more accumulation of the downstream cleavage product
Settings: experiment (reporter, strain, medium): exp 4a: truncated aprE reporter, strain BJT201 with 2% xylose (RNase J1 expressed); cleavage site: cggR-gapA (positions -7 to +36 mutated)
In short: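 Reporter mRNAs (truncated aprE or tetM) carrying barcoded, mutagenized RNase Y cleavage-site windows were made from oligos with a 9% error rate and integrated into the B. subtilis chromosome. Cultures grew in LB at 37°C from OD600 0.0003 to 0.3. Cleaved RNA was gel-selected, reverse transcribed and barcode-sequenced alongside genomic DNA barcodes, with UMI collapsing. Cleaved product abundance is the RNA:gDNA barcode ratio per variant, scaled to the median wild-type variant.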

Row | Sequence | cleaved RNA product abundance
1 | ACAGACGAAGGAGCCGCAAAGAAGTTATTAAGGGATCAATTATCCCTCAATATAAATATCTCTCACTTATTTAAA | 1.23
2 | ACAGACGAAGGAGCCGCAAAGAAGTTATTAAGGGATGACTAATCCCTAAATATAAATATCTCTCACTTATTTAAA | 0.359
3 | ACAGACGAAGGAGCCGCAAAGAAGTTATTAAAGGATGAATCATCCCTCAATATAAATATCTCTCACTTATTTAAA | 0.212
4 | ACAGACGAAGGAGCCGCAAAGAAGTTATTAAGGTATGAATAATCCCTCAATTTAAATATCTCTCACTTATTTAAA | 0.0555
5 | ACAGACGAAGGAGCCGCAAAGAAGTTATAAAGGCATGAATAATCCCTCAATATAAATATCTCTCACTTATTTAAA | 0.113
6 | ACAGACGAAGGAGCCGCAAATAAGTTATTCAGGGATGAATAATCCCTCAATATAAATATCTCTCACTTATTTAAA | 1.09
7 | ACAGACGAAGGAGCCGCAAAGAACTTATTCAGGGATGAATAATCCCTCAATATAAATATCTCTCACTTATTTAAA | 0.525
8 | ACAGACGAAGGAGCCGCAAAGAAGGTATTAAGGGATGAATAATCCCTAAATATAAATATCTCTCACTTATTTAAA | 0.966
9 | ACAGACGAAGGAGCCGCAAAGAAGTTATTTAGGGATTAATAATCCCTCAATATAAATATCTCTCACTTATTTAAA | 1.08
10 | ACAGACGAAGGAGCCGCAAAGAAGTGATTAAGGGATGCATAATCCCTCAATATAAATATCTCTCACTTATTTAAA | 0.51
11 | ACAGACGAAGGAGCCGCAACGAAGTTATTAAGGGACGAATAATCCCTCAATATAAATATCTCTCACTTATTTAAA | 0.585
12 | ACAGACGAAGGAGCCGCAAAGAAATTATTAAGGGATGAATAATCCCTCAACATAAATATCTCTCACTTATTTAAA | 0.234
13 | ACAGACGAAGGAGCCGCAAAGAAGTTATTAAGGGATGTATAATCCGTCAATATAAATATCTCTCACTTATTTAAA | 0.187
14 | ACAGACGAAGGAGCCGCAAAGAACTTATTAAGTGATGAATAATCCCTCAATATAAATATCTCTCACTTATTTAAA | 0.0735
15 | ACAGACGAAGGAGCCGCAAAGAAGTAATTAAGGGATGAATCATCCCTCAATATAAATATCTCTCACTTATTTAAA | 0.314
16 | ACAGACGAAGGAGCCGCAAAGAAGTTATTAAGGGATGAATAATACCTCAATATACATATCTCTCACTTATTTAAA | 0.123
17 | ACAGACGAAGGAGCCGCAAAGAAGATATTAAGGGATGAATTATCCCTCAATATAAATATCTCTCACTTATTTAAA | 0.572

Same assay, conditions: experiment (reporter, strain, medium): exp 6: tetM reporter, strain 168; cleavage site: cggR-gapA (positions -7 to +36 mutated)

Row | Sequence | cleaved RNA product abundance
18 | ACAGACGAAGGAGCCGTAAAGAAGTTATTAAGGGATGAATAATCCCTCAATATAAATATCTCTCACTTATTTAAA | 1.09
19 | ACAGACGAAGGAGCCGCGAAGAAGTTATTAAGGAATGAATAATCCCTCAATATAAATATCTCTCACTTATTTAAA | 0.104
20 | ACAGACGAAGGAGCCGCAAAGAAGTTGTTAAGGGATGAATAATACCTCAATATAAATATCTCTCACTTATTTAAA | 0.134

Same assay, conditions: experiment (reporter, strain, medium): exp 8a: truncated aprE reporter, strain BJT201 with 2% xylose (RNase J1 expressed); cleavage site: glnRA (positions -5 to +31 mutated)

Row | Sequence | cleaved RNA product abundance
21 | CGACATGTCCCGCTTCTTTCATTAATCCGTTAGCAACTGTTTCGCTATACACATTTACCTTTTAAGAGGAGGAAT | 0.222
22 | CGACATGTCCCGCTTCTTTCATTAGTCCGTTAGTAACTGTTTTGCTATATACATTTACCTTTTAAGAGGAGGAAT | 0.335
23 | CGACATGTCCCGCTTCTTTCATTAATCCGTTAGCAATCGTTTTGCTATATACATTTACCTTTTAAGAGGAGGAAT | 1.11
24 | CGACATGTCCCGCTTCTTTCATTAATCCGTTAGCGACTGTTTTGCTATATACATTGACCTTTTAAGAGGAGGAAT | 0.274
25 | CGACATGTCCCGCTTCTTTCATTAATCCGTTAGAAACTGTTTTGCTATATATATTTACCTTTTAAGAGGAGGAAT | 0.272
26 | CGACATGTCCCGCTTCTTTCATTAAACCGTTAGCAACTGTTATGCTATATACATTTACCTTTTAAGAGGAGGAAT | 0.552
27 | CGACATGTCCCGCTTCTTTCATTACTCCGTTAGCAACTGTTTTGCTATATACATTTACATTTTAAGAGGAGGAAT | 1.39
28 | CGACATGTCCCGCTTCTTTCATTAATCCGTTAGTAACTGTTTTGATATATACATTTACCTTTTAAGAGGAGGAAT | 0.66
29 | CGACATGTCCCGCTTCTTTCATTAATCCGTTAGCTACTGTTTTGCTATATACATTTACGTTTTAAGAGGAGGAAT | 0.818
30 | CGACATGTCCCGCTTCTTTCATTAATCCGTTAGCAACCGTGTTACTATATAAATTTACCTTTTAAGAGGAGGAAT | 0.271
31 | CGACATGTCCCGCTTCTTTCATTACTCCGTTAGCAACTGTTTTTCTATATACATTTACCTTTTAAGAGGAGGAAT | 0.594
32 | CGACATGTCCCGCTTCTTTCATTATTCCGTAAGCGACTGTTTTGATATATACATTTACCTTTTAAGAGGGGGAAT | 0.359
33 | CGACATGTCCCGCTTCTTTCATTAATCCGTTAGCAACTGGTTTGCTATATACATTTACTTTTTAAGAGGAGGAAT | 0.918
34 | CGACATGTCCCGCTTCTTTCATTAATCCGTTAGCAACTGTTTTACAATATACATTTACCTTTTAAGAGGAGGAAT | 0.534
35 | CGACATGTCCCGCTTCTTTCATTATTCCGTGAGCAACTGTTTTTCTATATACATTTACCTTTTAAGAGGAGGAAT | 0.407
36 | CGACATGTCCCGCTTCTTTCATTAATCCGTTAACAACTGTTTTCCTATATACATTTACCTTTTAAGAGGAGGAAT | 0.263
37 | CGACATGTCCCGCTTCTTTCATTAATCTTTTAGCAACTGTTTTGCTATATACATTTACCTTTTAAGAGGAGGAAT | 1.14
